According to patent publication US20140363522A1:
Values belong to the substance of their own block, whether it stands above or below them.

Columns and labels:
Test in all cases: cell-based or functional assay
[1] = target: interleukin (IL)-6 (human) (UniProt P05231)
[2] = target: interleukin (IL)-8 (human) (UniProt P10145)
[3] = target: monocyte chemoattractant protein-1 (human) (UniProt P13500)
[4] = target: tissue inhibitor of metalloproteinases-1 (human) (UniProt P01033)
Sequence of tissue inhibitor of metalloproteinases-1 (human) (P01033 24-207 limits assumed): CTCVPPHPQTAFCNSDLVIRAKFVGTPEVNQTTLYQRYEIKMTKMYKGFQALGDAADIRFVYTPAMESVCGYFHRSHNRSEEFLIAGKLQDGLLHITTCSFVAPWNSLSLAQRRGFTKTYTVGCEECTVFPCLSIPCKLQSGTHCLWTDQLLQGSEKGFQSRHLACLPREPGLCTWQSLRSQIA

Sequence of interleukin (IL)-6 (human) (P05231 30-212 limits assumed): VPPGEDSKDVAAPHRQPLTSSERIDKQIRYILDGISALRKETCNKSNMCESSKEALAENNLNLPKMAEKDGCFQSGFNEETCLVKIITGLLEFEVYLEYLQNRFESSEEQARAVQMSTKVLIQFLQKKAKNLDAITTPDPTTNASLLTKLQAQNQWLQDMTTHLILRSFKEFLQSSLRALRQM
Sequence of interleukin (IL)-8 (human) (P10145 28-99 limits assumed): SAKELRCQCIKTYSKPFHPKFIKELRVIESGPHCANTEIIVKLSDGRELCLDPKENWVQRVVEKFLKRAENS
Sequence of monocyte chemoattractant protein-1 (human) (P13500 24-99 limits assumed): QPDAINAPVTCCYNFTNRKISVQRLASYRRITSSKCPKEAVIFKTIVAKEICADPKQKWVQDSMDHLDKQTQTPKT

decrease in in vitro ovarian cancer cell homing toward adipocytes (Matrigel plug, fluorescence) [1]: > 50%
Substance: IL-6 inhibitory antibody (R&D Systems AB206NA)

decrease in in vitro ovarian cancer cell homing toward adipocytes (Matrigel plug, fluorescence) [2]: > 50%
Substance: IL-8 inhibitory antibody (R&D Systems AB208NA)

decrease in in vitro ovarian cancer cell homing toward adipocytes (Matrigel plug, fluorescence) [3]: > 50%
Substance: MCP-1 inhibitory antibody (R&D Systems AB279NA)

decrease in in vitro ovarian cancer cell homing toward adipocytes (Matrigel plug, fluorescence) [4]: > 50%
Substance: TIMP-1-specific inhibitory antibody (R&D Systems AF970)
